Source: patent publication US20260242839A1, “GLYCOSIDE PRODUCT BIOSYNTHESIS AND RECOVERY” (Manus Bio Inc., priority 2023, published 2026)

Legend:
[1] = cited from earlier work
[2] = maximum solubility of RebM in fermentation broth; type: physicochemical
Method: Fermentation broth was held at a constant temperature of 70° C. and subjected to different treatments as described in Table 7. RebM was slowly added with constant stirring to determine the maximum solubility of RebM.

[3] = test system: Mog. IA; assay: bioconversion of Mog. IA into Mog. IIE; type: cell-based, E. coli; details: 96-well plates, 37° C., 48 hours; FIG. 18A
Method: (§1) IE (FIG. 18B) into Mog. IIE. In the experiment, engineered E. coli chassis strains expressing UGT enzymes, SEQ ID NO: 84, SEQ ID NO: 71, or SEQ ID NO: 33 were incubated in fermentation media containing Mog. IA (FIG. 18A) or Mog. IE (FIG. 18B) in 96-well plates at 37° C. Product formation was examined after 48 hours. Products were measured on LC-MS/MS with authentic standards. The values of Mog. IIE levels in excess of the empty vector control were calculated. […] IE into Mog. IIE.

[4] = test system: mogrol; assay: primary glycosylation at C3 and C24 hydroxyls of mogrol by cells expressing UGT enzymes; type: cell-based, E. coli; details: mogrol fed; 37° C., 48 hrs; LCMS/MS
Method: Specifically, mogrol was fed to cells expressing various UGT enzymes. Reactions were incubated at 37° C. for 48 hrs. Products were quantified by LCMS/MS with authentic standards of each compound.

[5] = test system: Mog. IE; assay: bioconversion of Mog. IE into Mog. IIE; type: cell-based, E. coli; details: 96-well plates, 37° C., 48 hours; FIG. 18B
Method: as §1

[6] = test system: mogrol; assay: bioconversion of mogrol into mogroside intermediates; type: cell-based, E. coli; details: 96-well plates, 48 hours, in excess of empty vector control; FIG. 17A
Method: The engineered bacterial strains described herein can be used for the glycosylation of a variety of substrates, including but not limited to terpenoid glycosides. In some aspects, the invention identifies UGT enzymes that are active on the mogrol or mogroside scaffolds. FIGS. 17A and B show the bioconversion of mogrol into mogroside intermediates. Engineered E. coli strains (chassis strain) expressing UGT enzymes were incubated in 96-well plates with mogrol. Product formation was examined after 48 hours. Reported values are those in excess of the empty vector control. Products were measured on LC-MS/MS with authentic standards. […] IE and/or Mog. IIE formed.

[7] = test system: Mog. IIE or Mog. IE; assay: branched glycosylation reactions by cells expressing UGT enzymes; type: cell-based, E. coli; details: Mog. IIE or Mog. IE fed; 37° C., 48 hr; LC-MS/MS
Method: Mog. IIE or Mog. IE was fed to cells expressing various UGT enzymes. Reactions were incubated at 37° C. for 48 hr. Products were quantified by LC-MS/MS with authentic standards of each compound. “Indirect” evidence means that consumption of substrate was observed.

[8] = test system: Mog. I-E; assay: production of Mog. II-A2 from Mog. I-E; type: cell-based, E. coli; details: 37° C., 48 hr; FIG. 20
Method: II-A2. Mog. I-E was fed in vitro. In the experiment, engineered E. coli strains (chassis strain) expressing UGT enzyme SEQ ID NO: 73 were incubated at 37° C. for 48 hr. Products were quantified by LC-MS/MS with authentic standards of each compound. […] IE to Mog. II-A2.

Molecule: C=C1C[C@@]23CC[C@H]4[C@@](C)(CCC[C@@]4(C)C(=O)O[C@@H]4O[C@H](CO)[C@@H](O)[C@H](O[C@@H]5O[C@H](CO)[C@@H](O)[C@H](O)[C@H]5O)[C@H]4O[C@@H]4O[C@H](CO)[C@@H](O)[C@H](O)[C@H]4O)[C@@H]2CC[C@]1(O[C@@H]1O[C@H](CO)[C@@H](O)[C@H](O[C@@H]2O[C@H](CO)[C@@H](O)[C@H](O)[C@H]2O)[C@H]1O[C@@H]1O[C@H](CO)[C@@H](O)[C@H](O)[C@H]1O)C3 [RebM, rebaudioside M]
- times more potent than sucrose ([1]; estimated, Prakash et al. 2014): 200-350 times
- RebM solubility ([2]; pH 3.5, 70.8 ° C., no small molecule enhancer): 68.9 g/L
- RebM solubility ([2]; pH 7, 70.8 ° C., Glycerol 0.5 wt %): 119.0 g/L
- RebM solubility ([2]; pH 7, 70.8 ° C., no small molecule enhancer): 29.9 g/L
- RebM solubility ([2]; pH 11.6, 70.8 ° C., 1,3-Propanediol 0.5 wt %): 151.3 g/L
- RebM solubility ([2]; pH 11.6, 70.8 ° C., Glycerol 0.5 wt %): 151.3 g/L

Molecule: C[C@H](CC[C@@H](O[C@@H]1O[C@H](CO[C@@H]2O[C@H](CO)[C@@H](O)[C@H](O)[C@H]2O)[C@@H](O)[C@H](O)[C@H]1O[C@@H]1O[C@H](CO)[C@@H](O)[C@H](O)[C@H]1O)C(C)(C)O)[C@H]1CC[C@@]2(C)[C@@H]3CC=C4[C@@H](CC[C@H](O[C@@H]5O[C@H](CO[C@@H]6O[C@H](CO)[C@@H](O)[C@H](O)[C@H]6O)[C@@H](O)[C@H](O)[C@H]5O)C4(C)C)[C@]3(C)[C@H](O)C[C@]12C [mogroside V]
- sweetening capacity, times that of sucrose ([1]; Kasai et al. 1989): ~ 250 times

B1: SEQ ID NO: 71: AtUGT73C3 (Arabidopsis thaliana) (protein, listed as Arabidopsis thaliana)
chain: MATEKTHQFHPSLHFVLFPFMAQGHMIPMIDIARLLAQRGVTITIVTTPHNAARFKNVLNRAIESGLAINILHVKFPYQEFGLPEGKENIDSLDSTELMVPFFKAVNLLEDPVMKLMEEMKPRPSCLISDWCLPYTSIIAKNFNIPKIVFHGMGCFNLLCMHVLRRNLEILENVKSDEEYFLVPSFPDRVEFTKLQLPVKANASGDWKEIMDEMVKAEYTSYGVIVNTFQELEPPYVKDYKEAMDGKVWSIGPVSLCNKAGADKAERGSKAAIDQDECLQWLDSKEEGSVLYVCLGSICNLPLSQLKELGLGLEESRRSFIWVIRGSEKYKELFEWMLESGFEERIKERGLLIKGWAPQVLILSHPSVGGFLTHCGWNSTLEGITSGIPLITWPLFGDQFCNQKLVVQVLKAGVSAGVEEVMKWGEEDKIGVLVDKEGVKKAVEELMGDSDDAKERRRRVKELGELAHKAVEKGGSSHSNITLLLQDIMQLAQFKN
- bioconversion of Mog.IA into Mog.IIE [3]: able to catalyze bioconversion of Mog.IA into Mog.IIE
- C3 O-Glucosylation [4]: Yes
- C24 O-Glucosylation [4]: Yes
- bioconversion of Mog. IE into Mog. IIE [5]: able to catalyze the bioconversion of Mog. IE into Mog. IIE
- product formation from mogrol [6]: largely produced Mog.IA from mogrol

B2: SEQ ID NO: 84: UGT85C1 (Stevia rebaudiana) (protein, listed as Stevia rebaudiana)
chain: MDQMAKIDEKKPHVVFIPFPAQSHIKCMLKLARILHQKGLYITFINTDTNHERLVASGGTQWLENAPGFWFKTVPDGFGSAKDDGVKPTDALRELMDYLKTNFFDLFLDLVLKLEVPATCIICDGCMTFANTIRAAEKLNIPVILFWTMAACGFMAFYQAKVLKEKEIVPVKDETYLTNGYLDMEIDWIPGMKRIRLRDLPEFILATKQNYFAFEFLFETAQLADKVSHMIIHTFEELEASLVSEIKSIFPNVYTIGPLQLLLNKITQKETNNDSYSLWKEEPECVEWLNSKEPNSVVYVNFGSLAVMSLQDLVEFGWGLVNSNHYFLWIIRANLIDGKPAVMPQELKEAMNEKGFVGSWCSQEEVLNHPAVGGFLTHCGWGSIIESLSAGVPMLGWPSIGDQRANCRQMCKEWEVGMEIGKNVKRDEVEKLVRMLMEGLEGERMRKKALEWKKSATLATCCNGSSSLDVEKLANEIKKLSRN
- bioconversion of Mog.IA into Mog.IIE [3]: able to catalyze bioconversion of Mog.IA into Mog.IIE
- C3 O-Glucosylation [4]: Yes
- C24 O-Glucosylation [4]: Yes
- bioconversion of Mog. IE into Mog. IIE [5]: able to catalyze the bioconversion of Mog. IE into Mog. IIE

B3: SEQ ID NO: 33: SgUGT720-269-1 (Siraitia grosvenorii) (protein)
chain: MEDRNAMDMSRIKYRPQPLRPASMVQPRVLLFPFPALGHVKPFLSLAELLSDAGIDVVFLSTEYNHRRISNTEALASRFPTLHFETIPDGLPPNESRALADGPLYFSMREGTKPRFRQLIQSLNDGRWPITCIITDIMLSSPIEVAEEFGIPVIAFCPCSARYLSIHFFIPKLVEEGQIPYADDDPIGEIQGVPLFEGLLRRNHLPGSWSDKSADISFSHGLINQTLAAGRASALILNTFDELEAPFLTHLSSIFNKIYTIGPLHALSKSRLGDSSSSASALSGFWKEDRACMSWLDCQPPRSVVFVSFGSTMKMKADELREFWYGLVSSGKPFLCVLRSDVVSGGEAAELIEQMAEEEGAGGKLGMVVEWAAQEKVLSHPAVGGFLTHCGWNSTVESIAAGVPMMCWPILGDQPSNATWIDRVWKIGVERNNREWDRLTVEKMVRALMEGQKRVEIQRSMEKLSKLANEKVVRGINLHPTISLKKDTPTTSEHPRHEFENMRGMNYEMLVGNAIKSPTLTKK
- C3 O-Glucosylation [4]: Yes
- C24 O-Glucosylation [4]: Yes
- bioconversion of Mog. IE into Mog. IIE [5]: able to catalyze the bioconversion of Mog. IE into Mog. IIE
- product formation from mogrol [6]: largely produced Mog.IA from mogrol

B4: SEQ ID NO: 73: HvUGT_B3 (Hordeum vulgare subsp. Vulgare) (protein)
chain: MAEANDGGKMHVVMLPWLAFGHVLPFTEFAKRVARQGHRVTLLSAPRNTRRLIDIPPGLAGLIRVVHVPLPRVDGLPEHAEATIDLPSDHLRPCLRRAFDAAFERELSRLLQEEAKPDWVLVDYASYWAPTAAARHGVPCAFLSLFGAAALSFFGTPETLLGIGRHAKTEPAHLTVVPEYVPFPTTVAYRGYEARELFEPGMVPDDSGVSEGYRFAKTIEGCQLVGIRSSSEFEPEWLRLLGELYRKPVIPVGLFPPAPQDDVAGHEATLRWLDGQAPSSVVYAAFGSEVKLTGAQLQRIALGLEASGLPFIWAFRAPTSTETGAASGGLPEGFEERLAGRGVVCRGWVPQVKFLAHASVGGFLTHAGWNSIAEGLAHGVRLVLLPLVFEQGLNARNIVDKNIGVEVARDEQDGSFAAGDIAAALRRVMVEDEGEGFGAKVKELAKVFGDDEVNDQCVREFLMHLSDHSKKNQGQD
modifications: Hordeum vulgare
- C3 1-2 [7]: No
- C3 1-6 [7]: Yes
- C24 1-2 [7]: No
- C24 1-6 [7]: Yes
- bioconversion of Mog. IE to Mog. II-A2 [8]: able to catalyze bioconversion of Mog. IE to Mog. II-A2
